“Also recorded” adds a separate entry of the source.
B1: NMC-103: mouse monoclonal antibody of the IgG1 isotype that binds to NMC-P1 (SEQ ID NO:1); VH SEQ ID NO:36, VL SEQ ID NO:37 (antibody, V domains shown)
VH: EVQLQESGGGLVQPGGSLRLSCTTSGFTFTHYYMSWVRQPPGKALEWLGFIRNKAKGYTAEYSASVKGRFTISRDNSQSILYLQMNTLRPEDSATYYCARDIGDNWGQGTLVTVSS
VL: DIVMTQAAFSNPVTLGTSASISCRSSKNLLHSNGITYLYWYLQRPGQSPQLLISRVSNLASGVPNRFSGSESGTDFTLRISRVEAEDVGVYFCAQLLELPYTFGGGTKLEIK
modifications: mAb NMC-103 Heavy Chain Variable Region; mAb NMC-103 Light Chain Variable Region
B2: NMC-204: mouse monoclonal antibody of the IgG3 isotype that binds to NMC-P2 (SEQ ID NO:2); VH SEQ ID NO:38, VL SEQ ID NO:39 (antibody, V domains shown)
VH: EVQLQESGSVLVRPGASVKLSCKASGDTLSGSWMHWAMQRPGQGLEWIGEIHLNRGTTNYNEKFKGKATVTVDTSSSTAYVDLSSLTSEDSAVYYCARSPGFAYWGQGTLVTVSA
VL: GIVMTQAAPSVPVTPGESVSISCRSSKSLLHSNGNSYLYWFLQRPGQSPQLLIYRMSNLASGVPDRFSGSGSGTAFTLRITRVEAEDVGVYYCMQHLEYPFTFGSGTKLEIK
modifications: mAb NMC-204 Heavy Chain Variable Region; mAb NMC-204 Light Chain Variable Region

Experiments:
[1] = molecular target: NMC-P2 peptide (SEQ ID NO:2), amino acids 15-25 of HDM2 (Homo sapiens, UniProt Q00987); experiment: Peptide-ELISA; type: binding; settings: 5 μg/ml peptide on plate, OD 450 nm
Procedure: Peptide-ELISA Methodology: 5 μg/ml of NMC-P1, NMC-P2 or NMC-P3 peptide antigen was dried onto a 96-well ELISA plate overnight. Plates were then blocked with 5% BSA in 1× phosphate-buffered saline (PBS) (100 μl/well) for 2 hours at room temperature. Microplate wells were then washed 5 times with 300 μl of ice cold 1×PBS. Appropriate dilutions of monoclonal antibodies NMC-103, NMC-204 or NMC-303 in 1% bovine serum albumin (BSA) in PBS solution were then incubated with their corresponding peptides (NMC-P1, NMC-P2 or NMC-P3, respectively) at room temperature. After 2 hours, wells were washed 5 times with 300 μl ice-cold PBS/well and 100 μl secondary antibody (HRP-labeled Goat anti-Mouse F(ab′)2 H&L cross-adsorbed secondary antibody (HRP-GaM F(ab′)2), ThermoFisher, Cat. No. A24524) diluted 1:2500 to 1:5000 in PBS-1% BSA solution were added and the incubation continued at room temperature. After 1 hour, the wells were washed again 5 times with 200 μl of ice-cold PBS and 50 μL of the TMB Substrate Solution (1-Step™ Ultra TMB-ELISA, ThermoFisher, Cat. No. 34028) were added to each well and color was allowed to develop for 30 minutes at room temperature. The reaction was stopped by addition of 50 μL of stop solution (ThermoFisher, Cat. No. SS04) to each well and absorbance of each well was read immediately for optical density (OD) at 450 nm.

[2] = test system: human triple negative breast cancer HCC1806 cells; experiment: Cell-ELISA on intact cells; type: cell-based; settings: mAb 1 μg/mL, fixed, non-permeabilized cells
Procedure: (§1) Cell-ELISA Methodology: 8,000-10,000 cells/well of a 96-well microplate were grown overnight. The next day, unbound cells were washed off with sterile 1×PBS. The cells in each well were fixed with freshly prepared 4% buffered paraformaldehyde (pH 7.2) for 1 hour followed by 3 washes with 1×PBS. The wells were then blocked with 5% BSA in PBS (100 μl/well) for 2 hours at room temperature. Microplate wells were then washed 5 times with 300 μl of ice cold 1×PBS. MAbs NMC-103, NMC-204 or NMC-303 at 1 μg/mL in 1% BSA/PBS were then incubated with various cancer or normal untransformed cells for 2 hours at room temperature. Wells were then washed with 300 μl of ice-cold 1×PBS for 5 times and corresponding secondary antibody HRP-GaM F(ab′)2 diluted 1:2500 or 1:5000 in PBS with 1% BSA were added at 100 μl/well for 1 hour at room temperature followed by washing 5 times with 300 μl of ice-cold 1×PBS. TMB Substrate Solution (1-Step™ Ultra TMB-ELISA, ThermoFisher, Cat. No. 34028) was then added at 50 μL to each microplate well and incubated at room temperature for 30 minutes. The reaction was stopped by addition of 50 μL of stop solution (ThermoFisher, Cat. No. SS04) to each well and absorbance of each well was measured at OD450 nm. The absorbance value of each experimental well was corrected for the absorbance value obtained from wells treated with isotype-identical mAbs included in each experiment. The results are thus expressed as “relative binding”.

[3] = test system: human uveal melanoma 92.1 cells; experiment: Cell-ELISA on intact cells; type: cell-based; settings: mAb 1 μg/mL, fixed, non-permeabilized cells
Procedure: as §1

[4] = test system: normal human peripheral blood mononuclear cells (PBMCs); experiment: Cell-ELISA on intact cells; type: cell-based; settings: freshly isolated normal human PBMCs
Procedure: as §1

[5] = test system: mouse colon cancer MC-38 cells; experiment: MC-38 syngeneic mouse model of colon cancer; type: in vivo; settings: for reduction in tumor volume over the same time period: 0.4 mg/kg i.p. 3 times a week for 3 weeks
Procedure: Methodology used (Syngeneic Mouse Models of lung, colon and pancreatic cancer): To investigate the anti-tumor effects of HDM2-specific antibodies on lung, colon and pancreatic tumors in vivo, three well-known syngeneic mouse models of lung, colon and pancreatic cancer were used (Sharma et al., 1999, J. Immunol. 163 (9):5020-5028; McIntyre, 2015, Bioassays 37(8):909-920; Li, et al., 2015, Sci. Rep. 5:7856). Subcutaneous tumors were prepared by implanting either mouse Lewis Lung cancer LL/2 cells (2.5×10^5 cells/mouse), mouse colon cancer MC-38 cells (5×10^5 cells/mouse) or mouse pancreatic cancer Panc-2 cells (2×10^6 cells/mouse) in the right flanks of 8-week-old female C57BL/6 mice (n=6-7). The mice were returned to their respective cages after tumor implantation. From day 7 after tumor implantation, the tumor volumes were measured 2 times/week with a digital caliper. In the case of MC-38 and Panc-2 study, treatment started when the tumors reached an average of 70-80 mm^3. In the case of LL/2 study, tumor cell inoculation and treatment were initiated simultaneously. Mice were micro-chipped and registered following tumor implantation. Tumor volume measurements and body weights were recorded and mice were randomized into groups that received: A) mAb NMC-103 at 0.4 mg/kg (3 times a week for 3 weeks), 2 mg/kg (2 times a week for 3 weeks), or 4 mg/kg (2 times a week for 3 weeks); B) NMC-204 at 0.4 mg/kg (3 times a week for 3 weeks); C) isotype control mouse IgG1 (Abcam, Cat. No. ab18447) or IgG3 (Abcam, Cat. No. ab18392) at 0.4 mg/kg (3 times a week for 3 weeks) or 4 mg/kg (2 times a week for 3 weeks); D) Gemcitabine (25 mg/kg) and nab-paclitaxel (5 mg/kg) 2 times a week for 3 weeks; or E) a combination of gemcitabine (25 mg/kg), nab-paclitaxel (5 mg/kg) and mAb NMC-103 (2 mg/kg; 2 times a week for 3 weeks) or ([…]; […]). All tumors were injected subcutaneously and all treatments were performed by intraperitoneal injection. Any mouse displaying prolonged adverse clinical signs, or with body weight loss exceeding 15% relative to body weight at day 0, was euthanized. Tumor measurements from post-treatment with HDM2-specific antibodies versus isotype control mouse antibodies versus standard of care treatment (gemcitabine and nab-paclitaxel) were made, and results are presented in FIGS. 16-19.

| Molecule | binding to NMC-P2 peptide [1] | relative binding (reactivity) to intact cells, cell-ELISA [2] | relative binding (reactivity) to intact cells, cell-ELISA [3] | binding to intact normal cells, cell-ELISA [4] | average tumor size ([5]; MC-38, n=5, 10 mg/kg 2 times per week, by day 12) | reduction in tumor volume over the same time period ([5]; MC-38) | tumor reduction at 10 mg/kg compared to 0.4 mg/kg ([5]; MC-38, 10 mg/kg two times per week for three weeks vs FIG. 17) | tumor volume ([5]; MC-38 s.c. in C57BL/6, 0.4 mg/kg i.p. 3 times a week for 2.5 weeks, treated for 18 days (NMC-103 study)) | tumor cells stained positive for Ki67 ([5]; MC-38 tumors, immunohistochemical staining, NMC-103 study, 0.4 mg/kg) | tumor volume ([5]; MC-38, 0.4 mg/kg i.p. 3 times a week for 3 weeks (NMC-204 study)) | tumor cells stained positively for Ki67 ([5]; MC-38 tumors, NMC-204 study, 0.4 mg/kg) |
| --- | --- | --- | --- | --- | --- | --- | --- | --- | --- | --- | --- |
| B1 | did not bind | reactivity | reactivity | virtually no binding | 210 mm^3 | significant (p<0.005) reduction in tumor volume | greater tumor reduction | 1268 mm^3 | 5% |  |  |
| B2 | bound; also recorded: strong binding | reactivity | reactivity | did not react; also recorded: virtually no binding |  | significant (p<0.005) reduction in tumor volume |  |  |  | 1670 mm^3 | 30% |
